Measurements: paper PMC9375095

Molecular target: E-cadherin (human (endogenous in MCF7, HaCaT and FFPE human tissue))
Assay: MolBoolean (proximity assay with antibody-DNA conjugates); FFPE human tissue sections after deparaffinisation and antigen retrieval; secondary proximity probes; percentage of RCPs in each category per frame

Sequence of E-cadherin (human (endogenous in MCF7, HaCaT and FFPE human tissue)) (P12830 23-882): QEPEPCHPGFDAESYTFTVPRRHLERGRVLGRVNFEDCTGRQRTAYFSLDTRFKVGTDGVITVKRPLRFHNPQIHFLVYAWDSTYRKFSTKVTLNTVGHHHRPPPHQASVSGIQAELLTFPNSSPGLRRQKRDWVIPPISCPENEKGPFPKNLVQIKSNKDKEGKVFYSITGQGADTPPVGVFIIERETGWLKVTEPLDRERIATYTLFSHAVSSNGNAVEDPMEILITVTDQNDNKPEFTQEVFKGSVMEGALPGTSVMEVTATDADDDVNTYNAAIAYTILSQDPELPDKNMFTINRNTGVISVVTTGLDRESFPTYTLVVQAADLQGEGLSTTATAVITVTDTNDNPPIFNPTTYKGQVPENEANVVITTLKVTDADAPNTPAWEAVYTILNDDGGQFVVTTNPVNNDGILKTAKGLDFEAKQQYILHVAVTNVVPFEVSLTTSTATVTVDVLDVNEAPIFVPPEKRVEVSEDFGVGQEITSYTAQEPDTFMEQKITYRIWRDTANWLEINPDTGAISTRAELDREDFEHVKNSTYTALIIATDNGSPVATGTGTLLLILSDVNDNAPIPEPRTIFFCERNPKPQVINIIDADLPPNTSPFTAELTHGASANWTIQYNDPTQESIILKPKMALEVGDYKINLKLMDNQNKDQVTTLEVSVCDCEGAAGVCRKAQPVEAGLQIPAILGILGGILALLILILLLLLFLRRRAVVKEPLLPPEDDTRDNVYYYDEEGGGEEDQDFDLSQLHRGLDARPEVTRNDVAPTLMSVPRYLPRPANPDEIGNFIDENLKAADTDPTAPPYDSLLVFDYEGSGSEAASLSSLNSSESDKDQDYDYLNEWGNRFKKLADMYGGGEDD

“β-catenin (from UniProt P35222 1-781) (natural protein)” was tested, and the percent of the detected signal per image from complexes was 50%.
